Data from publication PMC9452783, “PLK1-mediated phosphorylation of PPIL2 regulates HR via CtIP” (Frontiers in Cell and Developmental Biology, 2022).

B1: GST-ZNF830 151-372 (E. coli, purified) (domain or fragment, UniProt Q96NB3 151-372, looked up)
chain: SGLSLLPDYEDEEEEEEEEEGDGERKRGDASKPLSDAQGKEHSVSSSREVTSSVLPNDFFSTNPPKAPIIPHSGSIEKAEIHEKVVERRENTAEALPEGFFDDPEVDARVRKVDAPKDQMDKEWDEFQKAMRQVNTISEAIVAEEDEEGRLDRQIGEIDEQIECYRRVEKLRNRQDEIKNKLKEILTIKELQKKEEENADSDDEGELQDLLSQDWRVKGALL
notes: source: E. coli BL21, purified (glutathione-Sepharose 4B)
B2: His-PPIL2 241-520 (E. coli, purified) (domain or fragment, UniProt Q13356 241-520, looked up)
chain: YSTGKVSASFTSTAMVPETTHEAAAIDEDVLRYQFVKKKGYVRLHTNKGDLNLELHCDLTPKTCENFIRLCKKHYYDGTIFHRSIRNFVIQGGDPTGTGTGGESYWGKPFKDEFRPNLSHTGRGILSMANSGPNSNRSQFFITFRSCAYLDKKHTIFGRVVGGFDVLTAMENVESDPKTDRPKEEIRIDATTVFVDPYEEADAQIAQERKTQLKVAPETKVKSSQPQAGSQGPQTFRQGVGKYINPAATKRAAEEEPSTSATVPMSKKKPSRGFGDFSSW
notes: source: E. coli BL21, purified (Ni-NTA)

Tests used:
[1] = target: B2; assay: pull-down; GST pull-down with purified GST-ZNF830 (full length or fragments) and His-PPIL2 (full length or fragments) expressed in E. coli; western blot and Coomassie brilliant blue; conditions: both partners purified
[2] = target: T1, GST-ZNF830 (E. coli, purified) (UniProt Q96NB3 1-372); assay: as above; conditions: both partners purified
T1 construct: ZNF830, full length, GST-tagged (pGEX6T-1); also called GST-tagged ZNF830; source: E. coli BL21, purified (glutathione-Sepharose 4B)
T1 sequence (looked up): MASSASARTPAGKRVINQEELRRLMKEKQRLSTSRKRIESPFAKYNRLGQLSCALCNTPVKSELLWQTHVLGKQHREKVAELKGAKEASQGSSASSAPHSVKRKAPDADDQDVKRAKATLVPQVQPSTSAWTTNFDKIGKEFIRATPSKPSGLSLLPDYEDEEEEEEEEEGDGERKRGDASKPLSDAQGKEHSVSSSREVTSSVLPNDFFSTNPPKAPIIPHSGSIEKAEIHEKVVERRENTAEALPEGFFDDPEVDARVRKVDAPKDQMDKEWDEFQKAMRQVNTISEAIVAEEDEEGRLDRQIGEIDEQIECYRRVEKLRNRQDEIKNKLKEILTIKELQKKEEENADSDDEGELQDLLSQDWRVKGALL

| Binder | binding result [1] | binding result [2] |
| --- | --- | --- |
| B1 | binds |  |
| B2 |  | binds |
